Tests used:
[1] = target: ZGGS15, anti-LAG-3/TIGIT bispecific IgG4 antibody (human); assay: BLI; ZGGS15 or BM (4 µg/mL) loaded to protein A probes; FcγRI 30 to 1 nM in solution; 150 s association, 200 s dissociation; BLI kinetics assay buffer; 25 °C, 1000 rpm
[2] = target: Relatlimab analog, anti-LAG-3 benchmark (human); assay: as above
Relatlimab analog, anti-LAG-3 benchmark (human), sequence (heavy, as listed by the source, chain 1 of 2): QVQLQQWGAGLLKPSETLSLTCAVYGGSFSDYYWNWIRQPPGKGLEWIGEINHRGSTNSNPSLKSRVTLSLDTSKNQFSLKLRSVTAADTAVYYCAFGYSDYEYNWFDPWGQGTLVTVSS
Relatlimab analog, anti-LAG-3 benchmark (human), sequence (light, as listed by the source, chain 2 of 2): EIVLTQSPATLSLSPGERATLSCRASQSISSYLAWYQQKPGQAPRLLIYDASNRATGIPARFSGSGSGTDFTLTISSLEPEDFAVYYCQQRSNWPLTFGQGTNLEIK

Kd [1]: 2.6 nM
Kd [2]: 3 nM
Substance: human Fc-gamma receptor I (FcγRI) (from UniProt P12314 16-374)

Reference: publication PMC11082181
